How the values were obtained:
[1] = biological target: SUD_(core), the core of the SARS-unique domain (Nsp3 residues 389-652) of SARS coronavirus (SARS coronavirus (strain TOR2)); assay: crystal structure
SUDcore (SUDc5b) = SUDcore (SUDc5b) (SARS coronavirus strain TOR2, UniProt P0C6U8 1207-1470); assay: ZIGE (gel shift); 100 mM KCl; settings: protein: recombinant; tags: N-terminal His-tag, factor Xa site linker; chain copies: 2; G4
full-length SUD (Nsp3c) = full-length SUD (Nsp3c) (SARS coronavirus strain TOR2, UniProt P0C6U8 1207-1544); assay: ZIGE (gel shift); 100 mM KCl; settings: protein: recombinant; tags: N-terminal His-tag, factor Xa site linker; G4
SUD-N = SUD-N (SARS coronavirus strain TOR2, UniProt P0C6U8 1207-1342); assay: ZIGE (gel shift); settings: protein: recombinant; tags: N-terminal His-tag, factor Xa site linker; G4 (oligo(G) known to form quadruplexes)
SUD-M = SUD-M (SARS coronavirus strain TOR2, UniProt P0C6U8 1343-1470); assay: ZIGE (gel shift); settings: protein: recombinant; tags: N-terminal His-tag, factor Xa site linker; G4 (oligo(G) known to form quadruplexes)

Row | Molecule | binding result (SUDcore (SUDc5b)) | binding result (full-length SUD (Nsp3c)) | further results
1 | SUD_(core), the core of the SARS-unique domain (Nsp3 residues 389-652) of SARS coronavirus (domain or fragment) |  |  | stoichiometry N [1]: 2
2 | UGGGGGGAGGGAGGGAGGGA (structured_RNA) [elastin 3'-NTR RNA G4] | binds | binds | 
3 | GGGGGGGGGG (structured_DNA) [(dG)10] |  |  | binding result (SUD-N): binds; binding result (SUD-M): binds
4 | GGGCGCGGGAGGAATTGGGCGGG (structured_DNA) [Bcl-2 promoter G4] | binds | binds | 
5 | UGGGGU (structured_RNA) [UG4U] | binds |  | 
